Test [1] has as its target ITGA2 protein on the surface of human tumor cells (human) (UniProt P17301). The test can be described thus: cell-based or functional assay.
The target in test [2] is T1, ITGA2 protein on the surface of human tumor cells (human, UniProt P17301 30-1181).
T1 sequence (looked up): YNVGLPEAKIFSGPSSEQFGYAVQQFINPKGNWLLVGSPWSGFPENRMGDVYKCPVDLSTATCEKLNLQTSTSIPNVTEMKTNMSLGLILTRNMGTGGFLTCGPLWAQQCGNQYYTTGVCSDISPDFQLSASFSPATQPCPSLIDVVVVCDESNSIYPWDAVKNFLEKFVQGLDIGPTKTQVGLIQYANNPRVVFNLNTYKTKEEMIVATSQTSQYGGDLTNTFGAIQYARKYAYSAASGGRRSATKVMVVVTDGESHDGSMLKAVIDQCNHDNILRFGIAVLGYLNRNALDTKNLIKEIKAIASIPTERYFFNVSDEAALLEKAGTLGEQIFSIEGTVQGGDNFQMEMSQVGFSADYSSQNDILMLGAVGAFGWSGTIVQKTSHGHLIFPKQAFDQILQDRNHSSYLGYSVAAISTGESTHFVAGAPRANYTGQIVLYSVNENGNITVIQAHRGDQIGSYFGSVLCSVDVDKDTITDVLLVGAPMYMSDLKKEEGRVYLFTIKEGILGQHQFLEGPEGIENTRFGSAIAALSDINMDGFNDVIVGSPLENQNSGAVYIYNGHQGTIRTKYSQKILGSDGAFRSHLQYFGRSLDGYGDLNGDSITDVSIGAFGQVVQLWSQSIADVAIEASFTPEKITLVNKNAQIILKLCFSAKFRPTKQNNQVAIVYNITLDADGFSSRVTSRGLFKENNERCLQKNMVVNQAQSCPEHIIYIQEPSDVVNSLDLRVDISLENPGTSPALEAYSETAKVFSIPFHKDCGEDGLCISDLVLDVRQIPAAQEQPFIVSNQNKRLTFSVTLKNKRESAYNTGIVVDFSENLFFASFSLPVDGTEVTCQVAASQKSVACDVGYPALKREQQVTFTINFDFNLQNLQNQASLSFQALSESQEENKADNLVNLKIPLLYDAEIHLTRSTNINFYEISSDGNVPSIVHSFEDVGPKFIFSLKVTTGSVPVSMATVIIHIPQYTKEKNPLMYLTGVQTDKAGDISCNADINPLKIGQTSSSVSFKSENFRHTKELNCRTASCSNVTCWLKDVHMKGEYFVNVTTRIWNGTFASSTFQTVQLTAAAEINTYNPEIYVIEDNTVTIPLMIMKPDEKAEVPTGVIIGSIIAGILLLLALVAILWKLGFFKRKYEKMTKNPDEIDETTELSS
As to the kind of experiment: cell-based or functional assay.

Test [3] has as its system Human epidermal cancer cells A431. As to the kind of experiment: ADC cancer cell killing assay (Cell-Titer-Glo 2.0). The class given is cell-based. To be noted: 5 days at 37°C, 3-fold gradient, 11 points. Here is the method: Human epidermal cancer cells A431 available from Procell Life Science&Technology Co.,Ltd. (Wuhan) were seeded into a 96-well plate at 2500 cells/well. It was then incubated in a 5% CO2 incubator overnight at 37°C. Half of the medium was removed from the cell plate on the next day. A 2x hIgG1-vcMMAE (negative control ADC, provided by ChemPartner), a control antibody and the ADC prepared as the above were prepared with a complete culture medium, and then diluted at a 3-fold gradient with 11 specific concentration points in total. Serial dilutions of the above molecules were added to the appropriate wells, and it was then incubated in a 5% CO2 incubator for 5 days at 37°C. After the incubation, 100 uL of Cell-Titer-Glo 2.0 reagent was added to the 96-well plate. It was then well mixed on a plate shaker for 2 minutes, and finally equilibrated at room temperature for 10 minutes. Readings were taken using a microplate reader. Finally, IC50 was used to compare the biological activity of the ADC against each cell line.

This is an account of results in patent EP4722245A1, “ANTIBODY TARGETING ITGA2, ANTIBODY DRUG CONJUGATE THEREOF, AND USE” (Foreseen Technology (Beijing) Co., Ltd., priority 2023, dated 2024).

The IC50 is the point on the concentration scale where inhibition reaches its midpoint. Read a low IC50 as higher potency.

In test [1], Vatelizumab-vc-MMAE (antibody) had an A431 cell killing IC50 of 0.054 nM.

B1: FS002-A226-H5L4-vcMMAE (antibody, human IgG1, kappa, V domains shown)
VH: QVQLVQSGAEVKKPGASVKVSCKASGYTFTDYEIHWVRQAPGQGLEWMGAIDPETGGTNYAQKFQGRVTMTADTSISTAYMELSRLRSDDTAVYYCSRSGYYVSNYESYAMDYWGQGTTVTVSS
VL: DIQLTQSPSSLSASVGDRVTITCRASQDIKSYLSWYQQKPGKAPKLLIYDTSNLASGVPSRFSGSGSGTDFTLTISSLQPEDFATYYCQQWSSYPFTFGGGTKLEIKR
modifications: vc-MMAE, attachment residues not stated; vc-MMAE (mc-vc-PAB-MMAE) conjugated after TCEP reduction, DAR 3.8 per antibody; attachment residues not stated
Take B1: the “A431 cell killing IC50” value in test [2] amounted to 0.049 nM.

B2: FS002-A153-H3L3-vcMMAE (antibody, human IgG1, kappa, V domains shown)
VH: QVQLVQSGAEVKKPGASVKLSCKASGYTFTDYEMHWVRQAPGQGLEWIGTIDPETGGTTYNQKFQGRVTLTADTSISTAYMELSRLRSDDTAVYYCSRSGYYVSSYESYAMDYWGQGTTVTVSS
VL: DIVMTQSPDSLAVSLGERATINCKSSQSLLNSGNQKNYLTWYQQKPGQPPKLLIYGASTRESGVPDRFSGSGSGTDFTLTISSLQAEDVAVYYCQNDYSYPFTFGGGTKLEIKR
modifications: vc-MMAE, attachment residues not stated; vc-MMAE (mc-vc-PAB-MMAE) conjugated after TCEP reduction, DAR 3.8 per antibody; attachment residues not stated
On to B2, for which the “A431 cell killing IC50” value in test [2] is 0.088 nM.

B3: FS002-A153-H5L1-vcMMAE (antibody, human IgG1, kappa, V domains shown)
VH: QVQLVQSGAEVKKPGASVKVSCKASGYTFTDYEMHWVRQAPGQGLEWMGTIDPETGGTTYAQKFQGRVTMTADTSISTAYMELSRLRSDDTAVYYCARSGYYVSSYESYAMDYWGQGTTVTVSS
VL: DIVMTQSPDSLAVSLGERVTMSCKSSQSLLNSGNQKNYLTWYQQKPGQPPKLLIYGASTRESGVPDRFTGSGSGTDFTLTISSLQAEDVAVYYCQNDYSYPFTFGGGTKLEIKR
modifications: vc-MMAE, attachment residues not stated; vc-MMAE (mc-vc-PAB-MMAE) conjugated after TCEP reduction, DAR 3.7 per antibody; attachment residues not stated
With B3, the “A431 cell killing IC50” value in test [2] amounted to 0.082 nM.

B4: FS002-A153-H5L2-vcMMAE (antibody, human IgG1, kappa, V domains shown)
VH: QVQLVQSGAEVKKPGASVKVSCKASGYTFTDYEMHWVRQAPGQGLEWMGTIDPETGGTTYAQKFQGRVTMTADTSISTAYMELSRLRSDDTAVYYCARSGYYVSSYESYAMDYWGQGTTVTVSS
VL: DIVMTQSPDSLAVSLGERVTMNCKSSQSLLNSGNQKNYLTWYQQKPGQPPKLLIYGASTRESGVPDRFSGSGSGTDFTLTISSLQAEDVAVYYCQNDYSYPFTFGGGTKLEIKR
modifications: vc-MMAE, attachment residues not stated; vc-MMAE (mc-vc-PAB-MMAE) conjugated after TCEP reduction, DAR 3.5 per antibody; attachment residues not stated
Regarding B4, the “A431 cell killing IC50” value in test [2] was found to be 0.028 nM.

B5: FS002-A103-H4L4-vcMMAE (antibody, human IgG1, kappa, V domains shown)
VH: QVQLVQSGAEVKKPGASVKVSCKASGYTFTDYEMHWVRQAPGQGLEWMGVIDPETGGTTYNQKFQGRVTLTADTSISTAYMELSRLRSDDTAVYYCSRSGYYVSSYESYAMDYWGQGTTVTVSS
VL: EIVMTQSPPTLSLSPGERVTLSCRASENVGTYVSWYQQKPGQAPRLLIYGASTRESGIPARFSGSGSGTDFTLTISSLQPEDFAVYYCQNDYSYPFTFGGGTKLEIKR
modifications: vc-MMAE, attachment residues not stated; vc-MMAE (mc-vc-PAB-MMAE) conjugated after TCEP reduction, DAR 3.7 per antibody; attachment residues not stated
B5: the “A431 cell killing IC50” value in test [2] was found to be 0.052 nM.

B6: FS002-A103-H4L2-vcMMAE (antibody, human IgG1, kappa, V domains shown)
VH: QVQLVQSGAEVKKPGASVKVSCKASGYTFTDYEMHWVRQAPGQGLEWMGVIDPETGGTTYNQKFQGRVTLTADTSISTAYMELSRLRSDDTAVYYCSRSGYYVSSYESYAMDYWGQGTTVTVSS
VL: EIVMTQSPKTMSMSPGERVTLSCKASENVGTYVSWYQQKPGQAPRLLIYGASTRESGVPDRFSGSGSGTDFTLTISSLQPEDFAVYYCQNDYSYPFTFGGGTKLEIKR
modifications: vc-MMAE, attachment residues not stated; vc-MMAE (mc-vc-PAB-MMAE) conjugated after TCEP reduction, DAR 3.5 per antibody; attachment residues not stated
In the case of B6, the “A431 cell killing IC50” value in test [2] was 0.061 nM.

B7: FS002-A103-H4L3-vcMMAE (antibody, human IgG1, kappa, V domains shown)
VH: QVQLVQSGAEVKKPGASVKVSCKASGYTFTDYEMHWVRQAPGQGLEWMGVIDPETGGTTYNQKFQGRVTLTADTSISTAYMELSRLRSDDTAVYYCSRSGYYVSSYESYAMDYWGQGTTVTVSS
VL: EIVMTQSPPTMSMSPGERVTLSCKASENVGTYVSWYQQKPGQAPRLLIYGASTRESGVPARFSGSGSGTDFTLTISSLQPEDFAVYYCQNDYSYPFTFGGGTKLEIKR
modifications: vc-MMAE, attachment residues not stated; vc-MMAE (mc-vc-PAB-MMAE) conjugated after TCEP reduction, DAR 3.5 per antibody; attachment residues not stated
Turning to B7, the “A431 cell killing IC50” value in test [2] worked out at 0.07 nM.

B8: FS002-A153-H4L2-vcMMAE (antibody, human IgG1, kappa, V domains shown)
VH: QVQLVQSGAEVKKPGASVKVSCKASGYTFTDYEMHWVRQAPGQGLEWMGTIDPETGGTTYAQKFQGRVTLTADTSISTAYMELSRLRSDDTAVYYCSRSGYYVSSYESYAMDYWGQGTTVTVSS
VL: DIVMTQSPDSLAVSLGERVTMNCKSSQSLLNSGNQKNYLTWYQQKPGQPPKLLIYGASTRESGVPDRFSGSGSGTDFTLTISSLQAEDVAVYYCQNDYSYPFTFGGGTKLEIKR
modifications: vc-MMAE, attachment residues not stated; vc-MMAE (mc-vc-PAB-MMAE) conjugated after TCEP reduction, DAR 3.8 per antibody; attachment residues not stated
For B8, the “A431 cell killing IC50” value in test [2] turned out to be 0.057 nM.

B9: Vatelizumab-vc-MMAE: Antibody-drug conjugate of the positive control antibody Vatelizumab with vc-MMAE linker-payload (conjugate, chains of the INN, looked up)
VH: QVQLQESGPGLVKPSETLSLTCTVSGFSLTNYGIHWIRQPPGKGLEWLGVIWARGFTNYNSALMSRLTISKDNSKNQVSLKLSSVTAADTAVYYCARANDGVYYAMDYWGQGTLVTVSS
VL: DFVMTQSPAFLSVTPGEKVTITCSAQSSVNYIHWYQQKPDQAPKKLIYDTSKLASGVPSRFSGSGSGTDYTFTISSLEAEDAATYYCQQWTTNPLTFGQGTKVEIK
modifications: vc-MMAE linker-payload
Regarding B9, the 50% inhibitory concentration (IC50) was 0.054 nM in test [3] and less than 0.1 nM in test [3] (listed as Vatelizumab-ve-MMAE).
